Reference: patent US20140212436A1
pKd: −log10 of the molar value.

Assays:
[1] = biological target: recombinant human FcγRIIb protein (human) (UniProt P31994); assay: Biacore
[2] = biological target: FcγRIIaR (human) (UniProt P12318); assay: Biacore
Chain of FcγRIIaR (human) (P12318 34-217 H167R limits assumed): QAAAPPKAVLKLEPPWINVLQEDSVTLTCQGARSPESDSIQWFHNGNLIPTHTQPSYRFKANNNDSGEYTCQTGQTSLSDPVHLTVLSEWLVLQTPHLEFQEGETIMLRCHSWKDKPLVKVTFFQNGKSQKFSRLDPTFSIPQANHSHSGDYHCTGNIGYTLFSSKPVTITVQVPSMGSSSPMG

Chain of recombinant human FcγRIIb protein (human) (P31994 46-217 limits assumed): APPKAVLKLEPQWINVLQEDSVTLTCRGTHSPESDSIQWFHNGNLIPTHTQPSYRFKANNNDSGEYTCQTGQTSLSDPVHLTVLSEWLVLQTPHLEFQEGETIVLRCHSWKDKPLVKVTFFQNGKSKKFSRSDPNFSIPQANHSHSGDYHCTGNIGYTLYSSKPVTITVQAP

Row | Fold [1] | pKd [1] | Fold [2] | pKd [2] | Substance
1 | 2.31 | 6.20 | – | – | A327D/L328Y/I332E (antibody)
2 | 0.353 | 5.38 | 0.319 | 5.57 | A327G (antibody)
3 | 0.011 | 3.87 | 0.634 | 5.87 | A327Q (antibody)
4 | 1.55 | 6.02 | – | – | A330K (antibody)
5 | 0.0635 | 4.64 | – | – | A330S (antibody)
6 | 0.417 | 5.45 | 0.307 | 5.55 | D265E (antibody)
7 | 0.0578 | 4.60 | – | – | G236A/G237A (antibody)
8 | 11.6 | 6.90 | – | – | G236D/H268D (antibody)
9 | 11.4 | 6.89 | 36.5 | 7.63 | G236E/S267E (antibody)
10 | 0.0147 | 4.00 | 0.00859 | 4.00 | G236F (antibody)
11 | – | – | 0.135 | 5.20 | G236H (antibody)
12 | 0.0147 | 4.00 | 0.00859 | 4.00 | G236K (antibody)
13 | 0.147 | 5.00 | 0.0859 | 5.00 | G236M (antibody)
14 | 0.147 | 5.00 | 0.0859 | 5.00 | G236P (antibody)
15 | 0.147 | 5.00 | 0.0859 | 5.00 | G236Q (antibody)
16 | 0.0147 | 4.00 | 0.00859 | 4.00 | G236R (antibody)
17 | 0.0797 | 4.74 | – | – | G236S/G237A (antibody)
18 | 0.0147 | 4.00 | 0.106 | 5.09 | G236V (antibody)
19 | 0.147 | 5.00 | 0.0859 | 5.00 | G236W (antibody)
20 | 0.0147 | 4.00 | 0.00859 | 4.00 | G237E (antibody)
21 | 0.0147 | 4.00 | 0.00859 | 4.00 | G237K (antibody)
22 | 0.0147 | 4.00 | 0.00859 | 4.00 | G237P (antibody)
23 | 0.147 | 5.00 | 0.0859 | 5.00 | G237Q (antibody)
24 | 0.147 | 5.00 | 0.081 | 4.97 | G237S (antibody)
25 | 0.147 | 5.00 | 0.0342 | 4.60 | G237V (antibody)

Row | Fold [1] | pKd [1] | Fold [2] | pKd [2] | Substance
26 | 0.33 | 5.35 | 0.902 | 6.02 | G237Y (antibody)
27 | 7.68 | 6.72 | – | – | H268D/A327D (antibody)
28 | 3.49 | 6.38 | – | – | H268D/A327D/L328Y (antibody)
29 | 18.6 | 7.10 | – | – | H268D/K326D/L328Y (antibody)
30 | 12.3 | 6.92 | – | – | H268D/L328F/I332E (antibody)
31 | 39.8 | 7.43 | – | – | H268D/L328W/I332E (antibody)
32 | 1.91 | 6.12 | – | – | H268D/L328Y (antibody)
33 | 4.89 | 6.52 | – | – | H268D/L328Y/I332E (antibody)
34 | 8.53 | 6.76 | – | – | H268E/L328Y/I332E (antibody)
35 | 1.17 | 5.90 | 1.79 | 6.32 | H268N (antibody)
36 | – | – | 1.58 | 6.26 | H268Q (antibody)
37 | 2.65 | 6.26 | – | – | K326D/L328Y/I332E (antibody)
38 | 6.09 | 6.62 | – | – | K326E (antibody)
39 | 3.04 | 6.32 | – | – | K326W (antibody)
40 | 5.11 | 6.54 | 0.728 | 5.93 | L234D/G236N/S267E (antibody)
41 | 5.89 | 6.60 | – | – | L234E/H268D (antibody)
42 | 0.147 | 5.00 | 0.0859 | 5.00 | L234G (antibody)
43 | 0.108 | 4.87 | 0.0554 | 4.81 | L234I (antibody)
44 | 0.0147 | 4.00 | 0.00859 | 4.00 | L234K (antibody)
45 | 0.0644 | 4.64 | 0.0141 | 4.22 | L234P (antibody)
46 | 0.147 | 5.00 | 0.0372 | 4.64 | L234Q (antibody)
47 | 0.192 | 5.12 | 0.693 | 5.91 | L234S (antibody)
48 | 0.456 | 5.49 | 0.134 | 5.19 | L234V (antibody)
49 | 11.4 | 6.89 | 5.69 | 6.82 | L234W/G236D/S239E/S267E (antibody)
50 | 5.92 | 6.61 | – | – | L234W/H268D/L328Y (antibody)

Row | Fold [1] | pKd [1] | Fold [2] | pKd [2] | Substance
51 | 6.32 | 6.63 | – | – | L234W/L328Y/I332E (antibody)
52 | 32.8 | 7.35 | – | – | L234W/S239D/L328Y (antibody)
53 | 42.3 | 7.46 | 98.5 | 8.06 | L234W/S239E/S267E (antibody)
54 | 0.0237 | 4.21 | 0.0511 | 4.77 | L234Y (antibody)
55 | 4.11 | 6.45 | – | – | L235D/S239D (antibody)
56 | 0.55 | 5.57 | 0.333 | 5.59 | L235E (antibody)
57 | 3.97 | 6.43 | – | – | L235F/H268D/L328Y (antibody)
58 | 3.31 | 6.35 | – | – | L235F/L328Y/I332E (antibody)
59 | 6.82 | 6.67 | – | – | L235F/S239D/L328Y (antibody)
60 | 0.734 | 5.70 | 0.756 | 5.94 | L235H (antibody)
61 | 0.147 | 5.00 | 0.0356 | 4.62 | L235N (antibody)
62 | 0.00585 | 3.60 | 0.122 | 5.15 | L235P (antibody)
63 | – | – | 2.04 | 6.38 | L235Q (antibody)
64 | 5.58 | 6.58 | 1.02 | 6.08 | L235R (antibody)
65 | 0.0147 | 4.00 | 0.00859 | 4.00 | L235S (antibody)
66 | – | 4.42 | – | – | L235S/S267E (antibody)
67 | 2.37 | 6.21 | 3.06 | 6.55 | L235T/S267E (antibody)
68 | 25 | 7.23 | 9.67 | 7.05 | L235Y/G236D/S267E (antibody)
69 | 15.9 | 7.04 | – | – | L235Y/S267D (antibody)
70 | 2.08 | 6.15 | – | – | L328Y/I332E (antibody)
71 | 0.147 | 5.00 | 0.0859 | 5.00 | P329E (antibody)
72 | 0.0372 | 4.40 | – | – | P331S (antibody)
73 | 11.9 | 6.91 | – | – | S239D/A327D/L328Y (antibody)
74 | 14.4 | 6.99 | – | – | S239D/H268D (antibody)
75 | 8.79 | 6.78 | – | – | S239D/H268D/L328F (antibody)

Row | Fold [1] | pKd [1] | Fold [2] | pKd [2] | Substance
76 | 53.2 | 7.56 | – | – | S239D/H268D/L328F/I332E (antibody)
77 | 51.1 | 7.54 | – | – | S239D/H268D/L328W (antibody)
78 | 27.8 | 7.28 | – | – | S239D/H268D/L328W/I332E (antibody)
79 | 24.4 | 7.22 | – | – | S239D/H268D/L328Y (antibody)
80 | 54.1 | 7.57 | – | – | S239D/H268D/L328Y/I332E (antibody)
81 | 21.7 | 7.17 | – | – | S239D/H268E/L328Y (antibody)
82 | 13 | 6.95 | – | – | S239D/K326D/L328Y (antibody)
83 | 8.34 | 6.75 | – | – | S239D/L328F/I332E (antibody)
84 | 5.56 | 6.58 | – | – | S239D/L328Y (antibody)
85 | 7.41 | 6.70 | – | – | S239D/L328Y/I332E (antibody)
86 | 19.8 | 7.13 | – | – | S239D/S267A/L328Y (antibody)
87 | 22.3 | 7.18 | – | – | S239D/S267D (antibody)
88 | 124 | 7.93 | – | – | S239D/S267E/I332E (antibody)
89 | 1.45 | 5.99 | 0.867 | 6.00 | S239N (antibody)
90 | 0.729 | 5.70 | 0.853 | 6.00 | S239Q (antibody)
91 | 10.7 | 6.86 | – | – | S267A/H268D/L328Y (antibody)
92 | 13.5 | 6.96 | – | – | S267A/L328Y/I332E (antibody)
93 | 6.89 | 6.67 | – | – | S267D/A327D (antibody)
94 | 12.1 | 6.92 | – | – | S267D/A327E (antibody)
95 | 14.2 | 6.99 | – | – | S267D/H268D (antibody)
96 | 17.8 | 7.08 | – | – | S267D/H268E (antibody)
97 | 33.3 | 7.36 | – | – | S267E/H268D (antibody)
98 | 5.17 | 6.55 | 4.64 | 6.73 | S267E/L328H (antibody)
99 | 53.4 | 7.56 | 74 | 7.94 | S267E/L328I (antibody)
100 | 12.1 | 6.92 | – | – | S267E/L328Q (antibody)
